Test results published in PMC8408140 (2021).

B1: TFEB-EGFP [not stated] / Flag-TNKS1 [not stated] (parent complex)
chain 1: MASRIGLRMQLMREQAQQEEQRERMQQQAVMHYMQQQQQQQQQQLGGPPTPAINTPVHFQSPPPVPGEVLKVQSYLENPTSYHLQQSQHQKVREYLSETYGNKFAAHISPAQGSPKPPPAASPGVRAGHVLSSSAGNSAPNSPMAMLHIGSNPERELDDVIDNIMRLDDVLGYINPEMQMPNTLPLSSSHLNVYSSDPQVTASLVGVTSSSCPADLTQKRELTDAESRALAKERQKKDNHNLIERRRRFNINDRIKELGMLIPKANDLDVRWNKGTILKASVDYIRRMQKDLQKSRELENHSRRLEMTNKQLWLRIQELEMQARVHGLPTTSPSGMNMAELAQQVVKQELPSEEGPGEALMLGAEVPDPEPLPALPPQAPLPLPTQPPSPFHHLDFSHSLSFGGREDEGPPGYPEPLAPGHGSPFPSLSKKDLDLMLLDDSLLPLASDPLLSTMSPEASKASSRRSSFSMEEGDVL
chain 2: MAASRRSQHHHHHHQQQLQPAPGASAPPPPPPPPLSPGLAPGTTPASPTASGLAPFASPRHGLALPEGDGSRDPPDRPRSPDPVDGTSCCSTTSTICTVAAAPVVPAVSTSSAAGVAPNPAGSGSNNSPSSSSSPTSSSSSSPSSPGSSLAESPEAAGVSSTAPLGPGAAGPGTGVPAVSGALRELLEACRNGDVSRVKRLVDAANVNAKDMAGRKSSPLHFAAGFGRKDVVEHLLQMGANVHARDDGGLIPLHNACSFGHAEVVSLLLCQGADPNARDNWNYTPLHEAAIKGKIDVCIVLLQHGADPNIRNTDGKSALDLADPSAKAVLTGEYKKDELLEAARSGNEEKLMALLTPLNVNCHASDGRKSTPLHLAAGYNRVRIVQLLLQHGADVHAKDKGGLVPLHNACSYGHYEVTELLLKHGACVNAMDLWQFTPLHEAASKNRVEVCSLLLSHGADPTLVNCHGKSAVDMAPTPELRERLTYEFKGHSLLQAAREADLAKVKKTLALEIINFKQPQSHETALHCAVASLHPKRKQVTELLLRKGANVNEKNKDFMTPLHVAAERAHNDVMEVLHKHGAKMNALDTLGQTALHRAALAGHLQTCRLLLSYGSDPSIISLQGFTAAQMGNEAVQQILSESTPIRTSDVDYRLLEASKAGDLETVKQLCSSQNVNCRDLEGRHSTPLHFAAGYNRVSVVEYLLHHGADVHAKDKGGLVPLHNACSYGHYEVAELLVRHGASVNVADLWKFTPLHEAAAKGKYEICKLLLKHGADPTKKNRDGNTPLDLVKEGDTDIQDLLRGDAALLDAAKKGCLARVQKLCTPENINCRDTQGRNSTPLHLAAGYNNLEVAEYLLEHGADVNAQDKGGLIPLHNAASYGHVDIAALLIKYNTCVNATDKWAFTPLHEAAQKGRTQLCALLLAHGADPTMKNQEGQTPLDLATADDIRALLIDAMPPEALPTCFKPQATVVSASLISPASTPSCLSAASSIDNLTGPLAELAVGGASNAGDGAAGTERKEGEVAGLDMNISQFLKSLGLEHLRDIFETEQITLDVLADMGHEELKEIGINAYGHRHKLIKGVERLLGGQQGTNPYLTFHCVNQGTILLDLAPEDKEYQSVEEEMQSTIREHRDGGNAGGIFNRYNVIRIQKVVNKKLRERFCHRQKEVSEENHNHHNERMLFHGSPFINAIIHKGFDERHAYIGGMFGAGIYFAENSSKSNQYVYGIGGGTGCPTHKDRSCYICHRQMLFCRVTLGKSFLQFSTMKMAHAPPGHHSVIGRPSVNGLAYAEYVIYRGEQAYPEYLITYQIMKPEAPSQTATAAEQKT

Variants of: B1
Assay: co-immunoprecipitation (anti-GFP IP, immunoblot quantification); HEK293T cells; three independent immunoblots; parent: 1; read off a plot

| Variant | ratio to parent |
| --- | --- |
| chain 1 V65D, chain 1 G67V, chain 1 E68A | ~0.4 |
